These are literature values, as cited in article PMC3081175.

What is called Kd is the equilibrium constant for the complex coming apart.

This series addresses c-Met (Homo sapiens) (UniProt P08581).
UniProt P08581, sequence (P08581 25-932): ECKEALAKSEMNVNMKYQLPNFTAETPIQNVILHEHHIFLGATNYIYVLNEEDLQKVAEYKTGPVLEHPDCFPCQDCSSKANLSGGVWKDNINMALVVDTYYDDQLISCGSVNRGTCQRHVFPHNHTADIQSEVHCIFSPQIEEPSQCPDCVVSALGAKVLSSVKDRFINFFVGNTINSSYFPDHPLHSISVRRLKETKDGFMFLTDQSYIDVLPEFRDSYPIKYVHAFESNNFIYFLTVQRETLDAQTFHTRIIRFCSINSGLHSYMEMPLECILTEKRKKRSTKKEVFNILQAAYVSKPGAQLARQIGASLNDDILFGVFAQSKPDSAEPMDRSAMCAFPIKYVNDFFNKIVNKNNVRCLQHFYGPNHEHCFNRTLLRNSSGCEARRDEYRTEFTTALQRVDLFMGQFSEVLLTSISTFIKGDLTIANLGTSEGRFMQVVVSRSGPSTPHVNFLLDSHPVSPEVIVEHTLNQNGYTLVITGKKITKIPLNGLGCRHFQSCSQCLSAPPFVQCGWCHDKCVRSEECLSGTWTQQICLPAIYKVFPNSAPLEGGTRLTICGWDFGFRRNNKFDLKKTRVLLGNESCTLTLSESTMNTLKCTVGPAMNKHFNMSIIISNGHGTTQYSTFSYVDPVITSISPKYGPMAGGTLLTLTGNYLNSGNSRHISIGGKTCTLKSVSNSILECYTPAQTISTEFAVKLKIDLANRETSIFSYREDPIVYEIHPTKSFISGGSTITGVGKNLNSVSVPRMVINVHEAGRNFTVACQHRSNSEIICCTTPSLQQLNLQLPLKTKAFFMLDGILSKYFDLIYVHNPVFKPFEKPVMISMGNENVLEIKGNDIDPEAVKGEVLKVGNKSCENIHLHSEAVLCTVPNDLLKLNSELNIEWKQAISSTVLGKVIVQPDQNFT

For the substance HGF (from UniProt P14210), the Kd was 0.03 nM.
